Measured values taken from publication PMC4028237, “GmFT2a and GmFT5a Redundantly and Differentially Regulate Flowering through Interaction with and Upregulation of the bZIP Transcription Factor GmFDL19 in Soybean”.

Target: T1, GmFDL19 (Glycine max, UniProt I1N8K2 1-320)
T1 sequence: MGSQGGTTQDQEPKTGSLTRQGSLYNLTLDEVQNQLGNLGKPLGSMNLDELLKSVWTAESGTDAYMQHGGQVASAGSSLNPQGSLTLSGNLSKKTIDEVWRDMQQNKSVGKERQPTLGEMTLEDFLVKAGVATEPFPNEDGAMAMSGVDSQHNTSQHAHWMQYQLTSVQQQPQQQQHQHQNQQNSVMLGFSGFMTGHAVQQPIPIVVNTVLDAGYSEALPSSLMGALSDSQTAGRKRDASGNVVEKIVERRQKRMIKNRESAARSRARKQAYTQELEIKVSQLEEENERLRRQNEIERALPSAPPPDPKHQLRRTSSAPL
Test: EMSA; Invitrogen EMSA kit E33075, 6% native TBE polyacrylamide gel, 200 V 45 min, SYBR Green stain; binding buffer, salt, pH and temperature not stated
Conditions: protein: recombinant; tags: His (pET29b, NdeI/SalI); chain copies: 2; label: none (SYBR Green stain); blunt

B1: GmAP1aP-1280 CArG box (dsDNA)
DNA 1: GCAACCATCCATCCAAAAATAAGGCAAAAAAAATAAACAT
DNA 2: ATGTTTATTTTTTTTGCCTTATTTTTGGATGGATGGTTGC
binding result: no binding
